The record followed here is US11458141B2, “Aryl hydrocarbon receptor (AhR) agonists for the prevention and treatment of inflammatory disorders” (The Johns Hopkins University, priority 2017, dated 2022).

The target in the test is T1, AHR (Mus musculus, UniProt P30561).
T1 construct: from tissue; host or cells: mouse intestine (ileum / intestinal mucosa), in vivo
T1 sequence (P30561 10-848): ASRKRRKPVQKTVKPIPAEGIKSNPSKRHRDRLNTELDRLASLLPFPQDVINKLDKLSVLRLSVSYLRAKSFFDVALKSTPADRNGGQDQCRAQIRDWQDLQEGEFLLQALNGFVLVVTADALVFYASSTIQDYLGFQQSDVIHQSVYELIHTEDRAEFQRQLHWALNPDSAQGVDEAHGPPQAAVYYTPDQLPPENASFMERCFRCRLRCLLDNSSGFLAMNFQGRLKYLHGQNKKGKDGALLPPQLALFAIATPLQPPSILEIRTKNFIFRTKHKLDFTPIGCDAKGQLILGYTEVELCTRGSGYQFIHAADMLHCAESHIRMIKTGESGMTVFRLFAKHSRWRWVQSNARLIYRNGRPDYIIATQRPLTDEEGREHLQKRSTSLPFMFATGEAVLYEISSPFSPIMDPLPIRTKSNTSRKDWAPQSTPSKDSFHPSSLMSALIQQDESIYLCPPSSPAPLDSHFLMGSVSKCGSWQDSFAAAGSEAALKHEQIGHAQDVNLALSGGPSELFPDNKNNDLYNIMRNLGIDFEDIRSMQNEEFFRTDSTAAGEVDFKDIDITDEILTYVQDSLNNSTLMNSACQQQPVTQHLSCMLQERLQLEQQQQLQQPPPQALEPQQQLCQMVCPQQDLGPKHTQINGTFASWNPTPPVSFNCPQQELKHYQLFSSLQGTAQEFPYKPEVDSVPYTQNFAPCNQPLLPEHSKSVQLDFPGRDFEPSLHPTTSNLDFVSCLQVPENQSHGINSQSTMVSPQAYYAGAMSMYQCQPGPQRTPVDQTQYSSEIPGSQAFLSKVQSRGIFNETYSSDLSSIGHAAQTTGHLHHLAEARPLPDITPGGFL
The test is described as follows: AHR activation in mice by breast milk components (preliminary data). It counts as in vivo. An excerpt:
iii. Other effects of breast milk. Although it is shown that breast milk inhibits TLR4 signaling in part via AHR activation (FIG. 15), potential AHR ligands within breast milk have not yet been thoroughly examined.

B1: epidermal growth factor (EGF): molecule enriched within breast milk shown to prevent NEC (protein, UniProt P01133 23-1207, looked up)
Pro-epidermal growth factor: PQHWSCPEGTLAGNGNSTCVGPAPFLIFSHGNSIFRIDTEGTNYEQLVVDAGVSVIMDFHYNEKRIYWVDLERQLLQRVFLNGSRQERVCNIEKNVSGMAINWINEEVIWSNQQEGIITVTDMKGNNSHILLSALKYPANVAVDPVERFIFWSSEVAGSLYRADLDGVGVKALLETSEKITAVSLDVLDKRLFWIQYNREGSNSLICSCDYDGGSVHISKHPTQHNLFAMSLFGDRIFYSTWKMKTIWIANKHTGKDMVRINLHSSFVPLGELKVVHPLAQPKAEDDTWEPEQKLCKLRKGNCSSTVCGQDLQSHLCMCAEGYALSRDRKYCEDVNECAFWNHGCTLGCKNTPGSYYCTCPVGFVLLPDGKRCHQLVSCPRNVSECSHDCVLTSEGPLCFCPEGSVLERDGKTCSGCSSPDNGGCSQLCVPLSPVSWECDCFPGYDLQLDEKSCAASGPQPFLLFANSQDIRHMHFDGTDYGTLLSQQMGMVYALDHDPVENKIYFAHTALKWIERANMDGSQRERLIEEGVDVPEGLAVDWIGRRFYWTDRGKSLIGRSDLNGKRSKIITKENISQPRGIAVHPMAKRLFWTDTGINPRIESSSLQGLGRLVIASSDLIWPSGITIDFLTDKLYWCDAKQSVIEMANLDGSKRRRLTQNDVGHPFAVAVFEDYVWFSDWAMPSVMRVNKRTGKDRVRLQGSMLKPSSLVVVHPLAKPGADPCLYQNGGCEHICKKRLGTAWCSCREGFMKASDGKTCLALDGHQLLAGGEVDLKNQVTPLDILSKTRVSEDNITESQHMLVAEIMVSDQDDCAPVGCSMYARCISEGEDATCQCLKGFAGDGKLCSDIDECEMGVPVCPPASSKCINTEGGYVCRCSEGYQGDGIHCLDIDECQLGEHSCGENASCTNTEGGYTCMCAGRLSEPGLICPDSTPPPHLREDDHHYSVRNSDSECPLSHDGYCLHDGVCMYIEALDKYACNCVVGYIGERCQYRDLKWWELRHAGHGQQQKVIVVAVCVVVLVMLLLLSLWGAHYYRTQKLLSKNPKNPYEESSRDVRSRRPADTEDGMSSCPQPWFVVIKEHQDLKNGGQPVAGEDGQAADGSMQPTSWRQEPQLCGMGTEQGCWIPVSSDKGSCPQVMERSFHMPSYGTQTLEGGVEKPHSLLSANPLWQQRALDPPHQMELTQ
modifications: Pro-epidermal growth factor
Consider B1, for which the AHR activation entry is “can activate AHR in mice”.
